Measured values as given in patent US20110117110A1 (FACET BIOTECH, published 2011).

Experiments:
EGFR on A431 cells [1] = target: T1, EGFR on A431 cells (human, UniProt P00533 25-1210); experiment: FACS competition on A431 cells: unlabelled antibody against biotinylated cetuximab (0.5 µg/mL), streptavidin-RPE detection; Trial 1
T1 construct: whole, on cells; also called epidermal growth factor receptor; ErbB-1
Method: (§1) A431 cells were grown to 2×10⁵ cells per well of V-bottom 96-well plates. Cells were washed with FACS staining buffer (FSB). […] The plates were then incubated on ice for 1 hour, and then washed twice with FSB. […] Cells were washed two times with FSB, and stained cells were resuspended with 200 μL of fixing buffer (1% paraformaldehyde). Samples were read using a flow cytometer.

EGFR on A431 cells [2] = target: T1, EGFR on A431 cells; experiment: FACS competition on A431 cells: unlabelled antibody against biotinylated cetuximab (0.5 µg/mL), streptavidin-RPE detection; Trial 2
Method: as §1

EGFR on A431 cells [3] = target: T1, EGFR on A431 cells; experiment: FACS competition on A431 cells against biotinylated cetuximab; panel FACS Competition (2)
Method: as §1

EGFR on A431 cells [4] = target: T1, EGFR on A431 cells; experiment: FACS competition on A431 cells: unlabelled antibody against biotinylated cetuximab (0.5 µg/mL), streptavidin-RPE detection; Trial 3
Method: as §1

EGFR on A431 cells [5] = target: T1, EGFR on A431 cells; experiment: FACS competition on A431 cells against biotinylated cetuximab; panel FACS Competition (3)
Method: as §1

EGFR on A431 cells [6] = target: T1, EGFR on A431 cells; experiment: FACS competition on A431 cells: unlabelled antibody against biotinylated cetuximab (0.5 µg/mL), streptavidin-RPE detection; column Average of Trials 1-3, column SD prints 0.4
Method: as §1

B1: hu225 (antibody, V domains shown)
VH: EVQLVESGGGLVQPGGSLRLSCAASGFSLTNYGVHWVRQAPGKGLEWLGVIWSGGNTDYNTPFTSRLTINKDNSKNTVYLQMNSLRAEDTAVYYCARALTYYDYEFAYWGQGTLVTVSS
VL: DILLTQSPGTLSLSPGERATLSCRASQSIGTNIHWYQQKPGQAPRLLIKYASESISGIPDRFSGSGSGTDFTLTISRLEPEDFAVYYCQQNNNWPTTFGQGTKLEIKR
notes: also called humanized version of MAb225; humanized cetuximab
B1 was tested, and the IC50 (EGFR on A431 cells [1]) was 1.71 mg/L, the IC50 (EGFR on A431 cells [2]) was 1.06 mg/L and the “IC50 (read off the curve)” value (EGFR on A431 cells [3]) was ~1 mg/L. The IC50 (EGFR on A431 cells [4]) was 2.62 mg/L, the “IC50 (read off the curve)” value (EGFR on A431 cells [5]) was ~3 mg/L and the IC50 (EGFR on A431 cells [6]) was 1.79 mg/L.
